The values that follow come from US10941200B2, “TREM2 cleavage modulators and uses thereof” (Deutsches Zentrum Für Neurodegenerative Erkrankungen EV, priority 2016, dated 2021).

“Also recorded” adds a separate entry of the source.

The subject of test [1] is human TREM2. The experiment in a line: MALDI-TOF mass spectrometry analysis of TREM2 ectodomain cleavage (C-terminal fragment) in HEK293 cells. The class given is cell-based. The note with it: C-terminally FLAG-tagged TREM2 in HEK293 cells; FIG. 1B; listed as GI. How it is done:
HEK293 Flp-In cells stably expressing WT and H157Y TREM2 were harvested in PBS. Cell pellets were frozen at −20° C. until use. Cells were lysed in lysis buffer (4% DDM, 0.1% N-octylglucoside, 10 mM Tris-HCl, pH 8.0, 5 mM EDTA, and 140 mM NaCl) containing protease inhibitor mix (Sigma-Aldrich) for 20 min on ice. Following a clarifying spin at 13,000 g for 20 min, supernatants were subjected to a second clarifying spin by centrifugation at 100,000 g for 1 h, and incubated with anti-FLAG M2-agarose (Sigma-Aldrich) overnight by rotation at 4° C. Beads were washed four times with IP/MS buffer (0.1% N-octylglucoside, 10 mM Tris-HCl, pH 8.0, 5 mM EDTA, and 140 mM NaCl) and two times with water. Beads were stored at −20° C. until IP/MS analysis.
IP/MS analysis was performed using Voyager DE STR (Applied Biosystems) as described previously). Immunoprecipitated peptides were eluted with TFA/CH3CN/water (1:20:20) saturated with α-cyano-4-hydroxy cinnamic acid. The dissolved samples were dried on a stainless plate and subjected to MALDI-TOF MS analysis.

For test [2], the target named is T1, human TREM2 (Homo sapiens, UniProt Q9NZC2).
T1 construct: HEK293 Flp-In cells either expressing human full-length TREM2 or empty vector; expressed in transfected cells
T1 sequence (Q9NZC2 19-230): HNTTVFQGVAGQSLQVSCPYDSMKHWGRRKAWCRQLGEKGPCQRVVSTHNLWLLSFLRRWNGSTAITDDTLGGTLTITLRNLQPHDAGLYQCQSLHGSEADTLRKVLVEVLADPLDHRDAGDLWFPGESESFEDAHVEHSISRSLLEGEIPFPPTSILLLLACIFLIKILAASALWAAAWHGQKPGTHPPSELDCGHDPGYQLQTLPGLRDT
The experiment in a line: Immunoblotting of mature TREM2 in membrane fractions of HEK cells stably overexpressing wt TREM2. The class given is cell-based. As to the method: (§1) HEK293 Flp-In cells stably overexpressing TREM2 or TREM2-DAP12 cDNA constructs were seeded at a density of 1.5×10^5/cm^2 and medium changed 48 h post seeding. Conditioned medium was collected after 18-20 h, immediately cooled down on ice, centrifuged at 13,000 rpm for 20 min at 4° C. and supernatants frozen at −20° C. until analysis. Supernatants were directly subjected to standard 15% SDS-PAGE. To prepare membrane fractions, cells were washed twice with ice-cold PBS, resuspended in ice-cold hypotonic buffer (0.01 M Tris, pH 7; 1 mM EDTA; 1 mM EGTA), freshly supplemented with protease inhibitor (Sigma) and incubated on ice for 30 min. After snap freezing in liquid
nitrogen and thawing, the disrupted cells were centrifuged at 13,000 rpm for 45 min at 4° C.
The resulting pellet was resuspended in STE lysis buffer (150 mM NaCl, 50 mM Tris-HCl,
pH 7.6, 2 mM EDTA, 1% Triton-X 100), incubated for 20 min on ice and clarified by centrifugation at 13,000 rpm for 30 min at 4° C. Protein concentrations were measured using the BCA method, equal amounts of protein were mixed with Laemmli sample buffer, supplemented with beta mercaptoethanol, separated by SDS-PAGE and transferred onto polyvinylidene difluoride membranes (Hybond P; Amersham Biosciences, Aylesbury, UK). Bound antibodies were visualized by corresponding HRP-conjugated secondary antibodies
(§2) using enhanced chemiluminescence technique (Pierce). Quantification of immunoblots was performed on a LAS-4000 image reader and analyzed using the Multi-Gauge V3.0 software (both Fujifilm Life Science).
(§3) 1*10^6-1.5*10^6 cells were seeded in the 6-well format. 24 hours later fresh medium was added to the cells. Antibody clones as generated by Dr. Feederle (Helmholtz Center Munich, Core Facility Monoclonal Antibody Development) were added simultaneously, i.e. for overnight treatment (about 24 hrs), at a final concentration of 50 μg/mL. On the next day, conditioned media and cells were collected and processed as described under “Preparation of conditioned media, cell lysates, and immunoblotting”.
(§4) ADAM10 inhibitor G1254023X (5 μM final concentration) and a control monoclonal antibody, which is specific for the C terminus of human TREM2, were used as positive and negative controls, respectively.

The target in test [3] is T1, human TREM2. The experiment in a line: sTREM2 ELISA of conditioned media from HEK293 Flp-In cells stably overexpressing wt TREM2 (ectodomain shedding). The class given is cell-based. How it is done:
as §3, §4
For quantitation of levels of sTREM2 in cell culture supernatants, an ELISA for human sTREM2 was established using the Meso Scale Discovery SECTOR Imager 2400. Streptavidin-coated 96-well plates were blocked overnight at 4° C. in 0.5% bovine serum albumin (BSA) and 0.05% Tween 20 in PBS (pH 7.4) (blocking buffer). For detection of human sTREM2, plates were shaken for 1 hour at room temperature with biotinylated polyclonal goat anti-human TREM2 capture antibody (0.25 mg/ml; R&D Systems) diluted in blocking buffer. Plates were washed subsequently four times with 0.05% Tween 20 in PBS (washing buffer) and incubated for 2 hours at room temperature with samples diluted 1:4 in 0.25% BSA and 0.05% Tween 20 in PBS (pH 7.4) (assay buffer) supplemented with protease inhibitors (Sigma). Recombinant human TREM2 protein (Holzel Diagnostika) was diluted in assay buffer in a two-fold serial dilution and used for the standard curve (concentration range, 4000 to […]). Plates were washed three times for 5 min with washing buffer before incubation for 1 hour at room temperature with mouse monoclonal anti-TREM2 antibody (1 mg/ml; Santa Cruz Biotechnology; B-3) diluted in blocking buffer. After three additional washing steps, plates were incubated with a SULFO-TAG-labeled anti-mouse secondary antibody (1:1000; Meso Scale Discovery) and incubated for 1 hour in the dark. Last, plates were washed three times with washing buffer followed by two washing steps in PBS and developed by adding Meso Scale Discovery Read buffer. The light emission at 620 nm after electrochemical stimulation was measured using the Meso Scale Discovery SECTOR Imager 2400 reader. To quantify the levels of sTREM2 secreted from HEK293 Flp-In cells, conditioned media from biological replicates were analyzed in duplicates. The sTREM2 standard curves were generated using the MasterPlex ReaderFit software (MiraiBio Group, Hitachi Solutions America) through a five-parameter logistic fit. Levels of sTREM2 were subsequently normalized to levels of immature TREM2 as quantified from Western Blots.
For orientation: An ELISA detects its analyte on a solid surface through an enzyme-linked reagent.

Test [4] concerns the target T1, human TREM2. As to conditions: Kleinberger et al, 2014; cited from earlier work.
Test [5] has as its target T1, human TREM2. The experiment in a line: Anti-HA immunoblotting of soluble TREM2 (sTREM2) from conditioned media of HEK cells stably overexpressing wt TREM2. The class given is cell-based. The note with it: antibody 50 μg/mL, 24 hrs; FIG. 7A top blot. As to the method:
as §1, §2
1*10^6-1.5*10^6 cells were seeded in the 6-well format. 24 hours later fresh medium was added to the cells. Antibody clones as generated by Dr. Feederle (Helmholtz Center Munich, Core Facility Monoclonal Antibody Development) were added simultaneously, i.e. for overnight treatment (about 24 hrs), at a final concentration of 50 μg/mL. On the next day, conditioned media and cells were collected and processed as described under “Preparation of conditioned media, cell lysates, and immunoblotting”. […]
(In western blotting, separated proteins are transferred to a membrane and probed.)

With `CNC(=O)[C@@H](NC(=O)[C@H](CCCc1ccccc1)[C@H](C)N(O)C=O)C(C)(C)C` [G1254023X], the “TREM2 C-terminal fragment cleavage peak in MALDI-TOF mass spectra upon ADAM inhibition” value in the test on human TREM2 [1] is reported as “no identified peak; also recorded: did not show any peak”. On human TREM2 [2] (ADAM10 inhibitor 5 μM, positive control), the “levels of mature TREM2, result in words” value was “increased levels of mature TREM2”. At human TREM2 [3] (ADAM10 inhibitor 5 μM, about 24 hrs, positive control, normalized to immature TREM2), the “decrease in shedding (sTREM2 ELISA)” value was “about 60%”. Moreover, the “inhibition of TREM2 cleavage (literature)” value at human TREM2 [4] is reported as “strongly inhibit cleavage”.

B1: clone 14D8: rat monoclonal antibody against TREM2 cleavage site peptide; heavy chain variable SEQ ID NO: 24, light chain variable SEQ ID NO: 34 (antibody, V domains shown)
VH: EVKLLESGGGLVQPGGSMRLSCAASGFTFTDFYMNWIRQPAGKAPEWLGLIRNKANGYTTVYNPSVKGRFTISRDNTQNMLYLQMNTLRGEDTATYYCARIGINNGGSLDYWGQGVMVTVSS
VL: DILINQSPASLTVSTGEKVTMSCRSSQSLLYSEKNQDYLAWYQQKPGQFPKLLIYGASYRHTGVPDRFTGSGSGTDFTLTISSVQAEDLADYYCEQTYSYPYTFGAGTKLELK
modifications: Clone 14D8 variable region of the heavy chain; Clone 14D8 variable region of the light chain
Regarding B1, in the test with human TREM2 [2] (antibody 50 μg/mL, 24 hrs, FIG. 7A bottom blot), the “increase in levels of mature TREM2 in the membrane fraction (immunoblot), result in words” value is given as “comparable to if not higher than the increase as seen with the ADAM10 inhibitor G1254023X”. The “levels of mature TREM2 in the membrane fraction (quantified immunoblots), result in words” value in the test with human TREM2 [2] (antibody 50 μg/mL, 24 hrs, normalized to immature TREM2, FIG. 7C) is “increases in levels of mature TREM2 comparable to or even higher than the ADAM10 inhibitor G1254023X; also recorded: increases in levels of mature TREM2 in the membrane fraction”. In the test with human TREM2 [3] (antibody 50 μg/mL, 24 hrs, normalized to immature TREM2, FIG. 7B), the “sTREM2 levels (ELISA), result in words” value was “decreases in sTREM2 levels comparable to the ADAM10 inhibitor G1254023X; also recorded: decreased levels of sTREM2”. The “activity to inhibit TREM2 cleavage (summary statement)” value with human TREM2 [3] (ranking among the antibody clones of the Examples) is “very high activity to inhibit TREM2 cleavage”. The “extent of ectodomain cleavage (sTREM2 immunoblot), result in words” value in the test with human TREM2 [5] is reported as “strongly reduce the extent of ectodomain cleavage”.
